Values quoted from earlier work, collected in PMC6473736.

Target: Nterm (UniProt position 2, ----MVHLTPE)
Conditions: not stated (haem ligation state not given)

## Human haemoglobin (adult Hb, alpha2beta2) (Homo sapiens)
  pKa: approximately 7.8 (α-chain) and 6.8 (β-chain)
